Reference: patent US20240352445A1 (published 2024)
Numbering of substitutions follows the chain as printed. Where two headings read alike, the source gives them in different places.

B1: LxA3-E4 (antibody, V domains shown)
VH: EVQLVESGGGLVQPGGSLRLSCEASGFTFPNQAMTWVRQAPGKGLEWIGVIASNADTYYASWAKGRFTISRDNSKNTLYLQMNSLRAEDTAVYYCARHPGSAGYGYGHYYAMDPWGQGTLVTVSS
VL: DIQMTQSPSSLSASVGDRVTITCQASENIRYAINWYQQKPGKAPKLLIYGATYRDEGVPSRFSGSGSGTDYTLTISSLQPEDFATYYCQQGYVVPNSFGGGTKVEIK
B2: humanized antibody hN2F (antibody, V domains shown)
VH: B1 VH with E23T, A24V, T28S, F29L, P30S, N31T, Q32Y, T35S, G107A, H108V
VL: DIQMTQSPSSLSASVGDRVTITCKASEDIRYGLNWYQQKPGKAPKLLIYGANTLEAGVPSRFSGSGSGTDFTLTISSLQPEDFATYYCQQGYSTPLTFGGGTKVEIK
B3: humanized antibody hN2Y (antibody, V domains shown)
VH: B1 VH with E23T, A24V, T28S, F29L, P30S, N31T, Q32Y, T35S, G107A, H108V
VL: B2 VL with F71Y
B4: LxA3-B11 (antibody, V domains shown)
VH: B1 VH
VL: DIQMTQSPSSLSASVGDRVTITCLASEQAHYAINWYQQKPGKAPKLLIYGTSLLAEGVPSRFSGSGSGTDFTLTISSLQPEDFATYYCQQGYIVPISFGGGTKVEIK
B5: rabbit monoclonal antibody C-A11 (antibody, V domains shown)
VH: QSLEESGGRLVTPGTPLTLTCTVSGFSLSTYAMSWVRQAPGKGLEWIGVIASNADTYYASWAKGRITISKTSTTVDLKITSPTTEDTATYFCARHPGSAGYGYAVYYAMDPWGPGTLVTVSS
VL: AIEMTQSPSSLAASVGDTVTITCKASEDIRYGLNWYQQKLGIAPKLLIYGANTLEAGVPSRFSGSGSETDYTLTISSVQAEDAGIYYCQQGYSTPLTFGAGTKVEIK

Columns and labels:
[1] = target: T1, SARS-CoV-2 spike protein trimer, Omicron (B.1.1.529) variant (SARS-CoV-2, UniProt P0DTC2 16-1213); experiment: BLI
[2] = target: SARS-CoV-2 spike protein trimer, Epsilon (B.1.429) variant (SARS-CoV-2, UniProt P0DTC2 16-1213)
[3] = target: SARS-CoV-2 spike protein trimer, Gamma (P.1) variant (SARS-CoV-2, UniProt P0DTC2 16-1213)
[4] = target: SARS-CoV-2 spike protein trimer, Alpha (B.1.1.7) variant (SARS-CoV-2, UniProt P0DTC2 16-1213)
[5] = target: T2, SARS-CoV-2 spike protein trimer, Beta (B.1.351) variant (SARS-CoV-2, UniProt P0DTC2 16-1213)
[6] = target: SARS-CoV-2 spike protein trimer, Kappa (B.1.617.1) variant (SARS-CoV-2, UniProt P0DTC2 16-1213)
[7] = target: T1, SARS-CoV-2 spike protein trimer, …; experiment: flow
[8] = target: T1, SARS-CoV-2 spike protein trimer, …; experiment: BLI; remark: listed apart in the source
[9] = target: T2, SARS-CoV-2 spike protein trimer, Beta …; experiment: BLI
[10] = target: T1, SARS-CoV-2 spike protein trimer, …; experiment: BLI; remark: listed apart in the source
[11] = target: T2, SARS-CoV-2 spike protein trimer, Beta …; experiment: BLI; remark: listed apart in the source
[12] = target: SARS-CoV-2 spike protein trimer, Omicron (BA.2) variant (SARS-CoV-2, UniProt P0DTC2 16-1213); experiment: ELISA
[13] = target: SARS-CoV-2 spike protein trimer, Delta (B.1.617.2) variant (SARS-CoV-2, UniProt P0DTC2 16-1213); experiment: ELISA
[14] = target: T1, SARS-CoV-2 spike protein trimer, …; experiment: ELISA

Binder	Kd [1] [nM]	IC50 [2] [µg/mL]	IC50 [3] [µg/mL]	IC50 [4] [µg/mL]	IC50 [5] [µg/mL]	IC50 [6] [µg/mL]	IC50 [7] [µg/mL]	Kd [8] [nM]	Kd [9] [nM]	Kd [10] [nM]	Kd [11] [nM]	IC50 [12] [µg/mL]	IC50 [13] [µg/mL]	IC50 [14] [µg/mL]
B1	< 0.001	–	–	–	–	–	–	–	–	–	–	–	–	–
B2	–	0.0101	2.18	0.0561	1.29	0.0589	> 0.5	–	–	–	–	–	–	–
B3	–	0.0184	0.0588	0.0704	0.0347	0.0117	–	0.123	0.193	0.123	0.193	0.159	0.00419	0.44
B4	0.0449	–	–	–	–	–	–	–	–	–	–	–	–	–
B5	–	0.00314	0.0548	0.0495	0.0218	0.0141	> 0.5	–	0.0404	–	0.0404	–	–	–
